Test results reported in the Human Domainome abundance scans (Beltran et al. 2025).
± gives the uncertainty stated by the source.

B1: Dynamin-binding protein, residues 242 to 304; numbered along this chain, Q6XZF7 (parent)
chain: EEPGTYGVALYRFQALEPNELDFEVGDKIRILATLEDGWLEGSLKGRTGIFPYRFVKLCPDTR

Variants of: B1
Assay: abundance fitness (aPCA) (normalised: wild type 0, dead -1); higher = more abundant; growth selection in yeast, the domain comes from the species named
Conditions: Homo sapiens

Point of comparison: EEPCTYGVALYRFQALEPNELDFEVGDKIRILATLEDGWLEGSLKGRTGIFPYRFVKLCPDTR, abundance fitness -0.135 ± 0.057. Against it:
- EEPGTYGVALYRFQALEPNELDFEVGDKIRILATLEDGWLEGSLKGRTGIFPYHFVKLCPDTR — higher, 0.027 ± 0.064
- EEPGTYGVALYRFQALEPNELDFEVGDKIRIPATLEDGWLEGSLKGRTGIFPYRFVKLCPDTR — lower, -0.687 ± 0.15
- EQPGTYGVALYRFQALEPNELDFEVGDKIRILATLEDGWLEGSLKGRTGIFPYRFVKLCPDTR — lower, -0.498 ± 0.19
- EWPGTYGVALYRFQALEPNELDFEVGDKIRILATLEDGWLEGSLKGRTGIFPYRFVKLCPDTR — within error, 0.044 ± 0.29
- EKPGTYGVALYRFQALEPNELDFEVGDKIRILATLEDGWLEGSLKGRTGIFPYRFVKLCPDTR — lower, -0.512 ± 0.22
- ENPGTYGVALYRFQALEPNELDFEVGDKIRILATLEDGWLEGSLKGRTGIFPYRFVKLCPDTR — higher, 0.016 ± 0.068
- EEPGTYGVALYRFQALEPNELDFEVCDKIRILATLEDGWLEGSLKGRTGIFPYRFVKLCPDTR — lower, -0.334 ± 0.054
- EEPGTYGVALYRFQALEPNELDFEVGDKIRILATLEDGWLEGSLKHRTGIFPYRFVKLCPDTR — lower, -0.73 ± 0.077
- EEPGTYGVALYRFQALEPNELDFEVGDKIRILATLEDGWLEGSLKGRTGEFPYRFVKLCPDTR — within error, -0.341 ± 0.15
- EEPGTYGVALYRFQALEPNELDFEVGDKIRILATLEDGWLEGSLKGRTGNFPYRFVKLCPDTR — lower, -0.43 ± 0.077
- EEPGTYGVALYRFQALEPNELDFEVGDKIRILATLEDGWLEGSLKGRTGFFPYRFVKLCPDTR — lower, -0.598 ± 0.077
- EEPGTYGVALYRFQALEPNELDFEVGDKIRILATLEDGWLEGSLKGRTGQFPYRFVKLCPDTR — within error, -0.093 ± 0.12
- EEPGTYGVALYRFQALEPNELDFEVGDKIRILATLEDGWLEGSLKGRTGRFPYRFVKLCPDTR — higher, 0.138 ± 0.058
- EEPGTYGVALYRFQMLEPNELDFEVGDKIRILATLEDGWLEGSLKGRTGIFPYRFVKLCPDTR — lower, -0.639 ± 0.31
- EEPGTYGVALYRFQALEPNELDFEVGDKIRILATLEDGWLEGSLKGRTDIFPYRFVKLCPDTR — lower, -0.574 ± 0.11
- EEPGTYGVALYRFQALEPFELDFEVGDKIRILATLEDGWLEGSLKGRTGIFPYRFVKLCPDTR — lower, -0.297 ± 0.061
- EEPGTYGVALYRFQALEPNELDFEVGDKIRILATLEDGWYEGSLKGRTGIFPYRFVKLCPDTR — lower, -0.259 ± 0.061
- EEPDTYGVALYRFQALEPNELDFEVGDKIRILATLEDGWLEGSLKGRTGIFPYRFVKLCPDTR — higher, -0.004 ± 0.064
- EEPGTYGVALYRFQALEPNELDFEVGDPIRILATLEDGWLEGSLKGRTGIFPYRFVKLCPDTR — lower, -0.553 ± 0.18
- EEPGTYGVALYRFQALEPNELDFEVGDAIRILATLEDGWLEGSLKGRTGIFPYRFVKLCPDTR — lower, -0.7 ± 0.1
- EEPGTYGVALYRFQALEPNELDFEVGDMIRILATLEDGWLEGSLKGRTGIFPYRFVKLCPDTR — lower, -0.529 ± 0.19
- EEPGTYGVGLYRFQALEPNELDFEVGDKIRILATLEDGWLEGSLKGRTGIFPYRFVKLCPDTR — lower, -0.443 ± 0.072
- EEPGTYGVNLYRFQALEPNELDFEVGDKIRILATLEDGWLEGSLKGRTGIFPYRFVKLCPDTR — lower, -0.812 ± 0.14
- EEPGTYGVCLYRFQALEPNELDFEVGDKIRILATLEDGWLEGSLKGRTGIFPYRFVKLCPDTR — lower, -0.771 ± 0.096
- EEPGTYGVVLYRFQALEPNELDFEVGDKIRILATLEDGWLEGSLKGRTGIFPYRFVKLCPDTR — lower, -0.853 ± 0.1
- EEPGTYGVALYRFQALEPNQLDFEVGDKIRILATLEDGWLEGSLKGRTGIFPYRFVKLCPDTR — higher, 0.069 ± 0.12
- EEPGTYGVALYRFQALEPNELDREVGDKIRILATLEDGWLEGSLKGRTGIFPYRFVKLCPDTR — lower, -0.684 ± 0.095
- EEPGTYGVALYRFQALEPNELDKEVGDKIRILATLEDGWLEGSLKGRTGIFPYRFVKLCPDTR — within error, -0.13 ± 0.17
- EEPGTYGVALYRFQALEPNELDGEVGDKIRILATLEDGWLEGSLKGRTGIFPYRFVKLCPDTR — lower, -0.682 ± 0.094
- EEPGTYGVALYRFQALEPNELDMEVGDKIRILATLEDGWLEGSLKGRTGIFPYRFVKLCPDTR — within error, -0.227 ± 0.13
- EEPGTYGVAGYRFQALEPNELDFEVGDKIRILATLEDGWLEGSLKGRTGIFPYRFVKLCPDTR — lower, -0.743 ± 0.098
- EEPGTYGVAKYRFQALEPNELDFEVGDKIRILATLEDGWLEGSLKGRTGIFPYRFVKLCPDTR — within error, -0.384 ± 0.21
- EEPGTYGVALYRFQALEPNELDFEVGDKIRDLATLEDGWLEGSLKGRTGIFPYRFVKLCPDTR — lower, -0.743 ± 0.13
- EEPGTYGVALYRFQALEPNELDFEVGDKIRPLATLEDGWLEGSLKGRTGIFPYRFVKLCPDTR — lower, -0.862 ± 0.2
- EEPGTYGVALYRFQALEPNELDFEVGDKIRKLATLEDGWLEGSLKGRTGIFPYRFVKLCPDTR — lower, -0.85 ± 0.31
- EEPGTYGVALYRFQALEPNELDFEVGDKIRILATLEDGWLEGSLVGRTGIFPYRFVKLCPDTR — lower, -0.728 ± 0.11
- EEPGTYGVALYRFQALEPNELDFEVGDKIRILATLEDGWLEGSLSGRTGIFPYRFVKLCPDTR — lower, -0.296 ± 0.055
- EEPGTYGVALYRFQALEPNELDFEVGDKIRILATLEDGWLEGSLDGRTGIFPYRFVKLCPDTR — higher, 0.104 ± 0.075
- EEPGTYGVALYRFQALEPNELDFEVGDKIRILATLSDGWLEGSLKGRTGIFPYRFVKLCPDTR — within error, -0.212 ± 0.054
- EEPGTYGVALYRFQALEPNELDFEVGDKIRILATLLDGWLEGSLKGRTGIFPYRFVKLCPDTR — lower, -0.698 ± 0.1
- EEPGTYGVALYRFQALEPNELDFEVGDKIRILATLEDGWLEGSLKGRTGIFPYRFVKLLPDTR — within error, -0.049 ± 0.067
- EEPGTYGVALYRFQALEPNELDFEVGDKIRILATLEDGWLEWSLKGRTGIFPYRFVKLCPDTR — lower, -0.506 ± 0.19
